# Laboratory results published in article PMC4332252 (The Journal of Cell Biology, 2015).
# T1: Plk4-EGFP (Drosophila melanogaster, UniProt O97143 1-769)
# T1 sequence (looked up): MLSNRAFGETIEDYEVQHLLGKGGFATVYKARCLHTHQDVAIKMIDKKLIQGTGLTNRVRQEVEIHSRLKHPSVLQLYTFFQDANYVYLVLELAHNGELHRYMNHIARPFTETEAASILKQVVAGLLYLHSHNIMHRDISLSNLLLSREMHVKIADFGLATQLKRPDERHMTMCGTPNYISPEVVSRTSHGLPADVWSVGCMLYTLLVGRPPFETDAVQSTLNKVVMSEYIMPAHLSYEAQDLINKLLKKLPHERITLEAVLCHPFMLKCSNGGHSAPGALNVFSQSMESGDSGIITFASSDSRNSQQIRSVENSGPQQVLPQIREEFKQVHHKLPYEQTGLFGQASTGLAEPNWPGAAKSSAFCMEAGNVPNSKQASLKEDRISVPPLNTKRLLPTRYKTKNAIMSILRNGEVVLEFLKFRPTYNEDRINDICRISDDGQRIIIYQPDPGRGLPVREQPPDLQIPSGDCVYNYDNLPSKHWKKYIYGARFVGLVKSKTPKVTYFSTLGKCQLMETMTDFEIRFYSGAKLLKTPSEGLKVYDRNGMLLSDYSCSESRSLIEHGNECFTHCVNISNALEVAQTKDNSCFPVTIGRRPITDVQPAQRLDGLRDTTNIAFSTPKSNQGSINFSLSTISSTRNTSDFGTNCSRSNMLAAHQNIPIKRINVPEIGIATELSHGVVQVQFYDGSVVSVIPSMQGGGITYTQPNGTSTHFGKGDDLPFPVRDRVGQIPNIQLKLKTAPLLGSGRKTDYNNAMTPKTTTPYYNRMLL
# Experiments:
# SEC-MALS = target: the molecule itself; assay: SEC-MALS
# Plk4-EGFP = target: T1, Plk4-EGFP; assay: co-IP
"fold increase of bound Plk4-myc with Asl coexpressed, against without Asl (Plk4-EGFP) [fold]",Binder,stoichiometry N (SEC-MALS)
–,"His6-Asl-C (aa 626-994) (domain or fragment, Drosophila melanogaster, UniProt Q9VNE4 626-994, looked up) EAVAVAKESSENCSKCIESIAEITKAEIQLLKLQNVNSMQAKELKELEHALEQSKNLQAEMQEKIELSNKQDELISDLKERAKQFEAYIRQQEEHKQQNKCTPSPKSNSVSPSDPSPKELTQNRIRLIEQRVRDEMAKLFAAELKRFTNRLQKSEERSQCLQREYQTVCAELQQRQTEVDLLKQTILAERENIDEILAGREEKQKEMLQKCRQELQAKNQRIAELLREVEEQHASIDSERQSMKAVMAQWEKQRQSVDQVEHHWRQQLESLRSTHEEAMRSAQQRYQSAKRTAHNYKLYAEDKEAHMKREYERIKHEYELSLAKIEATMNQHLERRSREKHRDKENVPSNSSSDPITNSNRKPKGNGHS",3
–,"His6-Asl-B (aa 358-625) (domain or fragment, Drosophila melanogaster, UniProt Q9VNE4 358-625, looked up) TSRLSQMGGSRLVGSTPLNPLDRVGHIKQELYRALGNLKNKREEVRRLEKLLEERNQELRVLRDQENQSLVQLETLNEGKMRLENKVKAMQQELEEQKHRSQQESDVHSQLNSIVAERDALREKRQQIEEDLEQLKQQNESLQRNYDQLSQENRQLRTRETADNLRLELERHKILLRDSQSEVERLKKLYSDIATDKESLGYELRKLRESDTLKELQDQRQNLATVQRNLQLAEMKSEELKKLLETEKLSHERDLQALRQRSEREKRE",2
~4,"Plk4-myc (natural protein, Drosophila melanogaster, UniProt O97143 1-769, looked up) MLSNRAFGETIEDYEVQHLLGKGGFATVYKARCLHTHQDVAIKMIDKKLIQGTGLTNRVRQEVEIHSRLKHPSVLQLYTFFQDANYVYLVLELAHNGELHRYMNHIARPFTETEAASILKQVVAGLLYLHSHNIMHRDISLSNLLLSREMHVKIADFGLATQLKRPDERHMTMCGTPNYISPEVVSRTSHGLPADVWSVGCMLYTLLVGRPPFETDAVQSTLNKVVMSEYIMPAHLSYEAQDLINKLLKKLPHERITLEAVLCHPFMLKCSNGGHSAPGALNVFSQSMESGDSGIITFASSDSRNSQQIRSVENSGPQQVLPQIREEFKQVHHKLPYEQTGLFGQASTGLAEPNWPGAAKSSAFCMEAGNVPNSKQASLKEDRISVPPLNTKRLLPTRYKTKNAIMSILRNGEVVLEFLKFRPTYNEDRINDICRISDDGQRIIIYQPDPGRGLPVREQPPDLQIPSGDCVYNYDNLPSKHWKKYIYGARFVGLVKSKTPKVTYFSTLGKCQLMETMTDFEIRFYSGAKLLKTPSEGLKVYDRNGMLLSDYSCSESRSLIEHGNECFTHCVNISNALEVAQTKDNSCFPVTIGRRPITDVQPAQRLDGLRDTTNIAFSTPKSNQGSINFSLSTISSTRNTSDFGTNCSRSNMLAAHQNIPIKRINVPEIGIATELSHGVVQVQFYDGSVVSVIPSMQGGGITYTQPNGTSTHFGKGDDLPFPVRDRVGQIPNIQLKLKTAPLLGSGRKTDYNNAMTPKTTTPYYNRMLL",–
–,"His6-Asl-A (aa 1-357) (domain or fragment, Drosophila melanogaster, UniProt Q9VNE4 1-357, looked up) MNTPGISLFQGADALNINSTLDRQEEEEALQDQKRREEELGRIMVNAFDDLLDEENTIDSTTNYQSELEQPPVLPNYPSHPHHKPLQDDAQRANEIEMHRLQILLESKNNELQNVNQVANAAHKKLDDLQKHLSIMQAELDRAIREKQNTHELLVETKETCSNKDSDLDKLRSEKKQLEEDNTRLVGQLEAAKTLLTDVQSKYDMVQASKQKWEERNADLRLKQMEEAHRAQSDLLQQQLCQMKDQLDRKQNELDQINSRYNALQSGHETMLVDKAAKINELSQALDEAQMRCNQLSARPDLQAENRRQQQCIVDLKARIAYLEQTVASLHERLNETTTELDLIDSVIQQHQADESP",2
